The experiment has as its target T1, 人源FSTL1蛋白 (卵泡抑素样蛋白1, Follistatin-like 1) (human, UniProt Q12841 21-308, limits assumed).
T1 construct: Soluble protein, used as analyte in SPR and as labelled ligand in MST; The construct is not described; also called 抗原; 靶点蛋白
T1 sequence (looked up): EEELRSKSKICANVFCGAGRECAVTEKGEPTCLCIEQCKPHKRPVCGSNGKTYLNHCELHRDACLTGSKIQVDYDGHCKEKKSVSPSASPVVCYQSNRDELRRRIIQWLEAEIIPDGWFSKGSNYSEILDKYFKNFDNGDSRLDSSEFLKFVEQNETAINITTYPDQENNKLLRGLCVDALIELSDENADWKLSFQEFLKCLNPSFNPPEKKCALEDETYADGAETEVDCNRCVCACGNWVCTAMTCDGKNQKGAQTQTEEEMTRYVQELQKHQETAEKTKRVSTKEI
Kind of experiment: SPR (Biacore T200), antibody amine-coupled on CM5 chip, FSTL1 protein injected. For orientation: Surface plasmon resonance follows binding to a sensor surface in real time, without labels.

As a reminder, the Kd is the equilibrium constant for the complex coming apart. Low readings indicate higher affinity, high ones lower affinity.

B1: 人源FSTL1中和性抗体JK07 (全长IgG) (antibody, V domains shown)
VH: QVQLVQSGAEVKKPGSTVKVSCKSSEGTFNNYGISWIRQAPGQGLEWMGGVIPIIGIGNFPQKFQDRVTMTADKFTGTAYMELSSLRSEDTAVYYCARHLGGRNSYDVFDIWGQGTLVTVSS
VL: EIVLTQSPLSLPVTLGQTASISCRSSHSLVQSNGNTYLTWFQQRPGQSPRRLIYKVSSRDSGVPDRFSGSGSGTDFTLKISRVEAEDVGVYYCMQARQTPWTFGQGTKVEIKR
notes: also called JK07抗体
As to B1, the Kd is 6.17 nM.

Source of the values: CN113121684A (TIANJIN JIKUN PHARMACEUTICAL TECH CO LTD, dated 2021).
